Legend:
[1] = system: HeLa Kyoto; test: melting temperature (median over replicates), in situ; higher = more thermally stable
[2] = system: HeLa Kyoto; test: solubility change mitosis vs G1/S (difference of NP-40 vs SDS log2 ratios) (log2 ratio difference); higher = more soluble in mitosis
[3] = system: HeLa Kyoto; test: solubility in G1/S (NP-40 vs SDS abundance) (log2 ratio); higher = more soluble; settings: cell cycle stage: G1/S
[4] = system: HeLa Kyoto; test: thermal stability score vs G1/S (z-score of summed log2 fold changes over temperatures); higher = more thermally stable than in G1/S
[5] = cell cycle stage: early G1 (4.5 h after nocodazole release)
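For melting temperature (median over replicates), in situ in this document: HeLa Kyoto cells synchronized by double thymidine or nocodazole block, proteins quantified by TMT10plex mass spectrometry, three independent biological replicates.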
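For solubility change mitosis vs G1/S (difference of NP-40 vs SDS log2 ratios) in this document: synchronized HeLa Kyoto cells (double thymidine block for G1/S, nocodazole release for mitosis), protein amounts in NP-40 versus SDS lysates quantified by mass spectrometry, three biological replicates.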
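For solubility in G1/S (NP-40 vs SDS abundance) in this document: HeLa Kyoto cells arrested at G1/S by double thymidine block, proteins quantified by TMT10plex mass spectrometry in mild NP-40 versus SDS extracts, three biological replicates.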
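For thermal stability score vs G1/S (z-score of summed log2 fold changes over temperatures) in this document: synchronized HeLa Kyoto cells, proteins quantified by TMT10plex mass spectrometry, three biological replicates, mitosis taken 0.5 h after nocodazole release, G1/S directly after double thymidine block.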

## MDSRVSELFGGCCRPGGGPAVGGTLKARGAGSSSGCGGPKGKKKNGRNRGGKANNPPYLPPEAEDGNIEYKLKLVNPSQYRFEHLVTQMKWRLQEGRGEAVYQIGVEDNGLLVGLAEEEMRASLKTLHRMAEKVGADITVLREREVDYDSDMPRKITEVLVRKVPDNQQFLDLRVAVLGNVDSGKSTLLGVLTQGELDNGRGRARLNLFRHLHEIQSGRTSSISFEILGFNSKGEVVNYSDSRTAEEICESSSKMITFIDLAGHHKYLHTTIFGLTSYCPDCALLLVSANTGIAGTTREHLGLALALKVPFFIVVSKIDLCAKTTVERTVRQLERVLKQPGCHKVPMLVTSEDDAVTAAQQFAQSPNVTPIFTLSSVSGESLDLLKVFLNILPPLTNSKEQEELMQQLTEFQVDEIYTVPEVGTVVGGTLSSGICREGDQLVVGPTDDGCFLELRVCSIQRNRSACRVLRAGQAATLALGDFDRALLRKGMVMVSPEMNPTICSVFEAEIVLLFHATTFRRGFQVTVHVGNVRQTAVVEKIHAKDKLRTGEKAVVRFRFLKHPEYLKVGAKLLFREGVTKGIGHVTDVQAITAGEAQANMGF [GTPBP2]
[1]; cell cycle stage: G1/S
  melting temperature: 49.9 °C
[1]; cell cycle stage: mitosis
  melting temperature: 50.1 °C
[2]
  solubility change mitosis (log2): 0.127
[3]
  solubility in G1/S (log2): -0.711
[4]; [5]
  thermal stability score: 0.507
[4]; cell cycle stage: mitosis
  thermal stability score: 0.439

## MDSTLTASEIRQRFIDFFKRNEHTYVHSSATIPLDDPTLLFANAGMNQFKPIFLNTIDPSHPMAKLSRAANTQKCIRAGGKHNDLDDVGKDVYHHTFFEMLGSWSFGDYFKELACKMALELLTQEFGIPIERLYVTYFGGDEAAGLEADLECKQIWQNLGLDDTKILPGNMKDNFWEMGDTGPCGPCSEIHYDRIGGRDAAHLVNQDDPNVLEIWNLVFIQYNREADGILKPLPKKSIDTGMGLERLVSVLQNKMSNYDTDLFVPYFEAIQKGTGARPYTGKVGAEDADGIDMAYRVLADHARTITVALADGGRPDNTGRGYVLRRILRRAVRYAHEKLNASRGFFATLVDVVVQSLGDAFPELKKDPDMVKDIINEEEVQFLKTLSRGRRILDRKIQSLGDSKTIPGDTAWLLYDTYGFPVDLTGLIAEEKGLVVDMDGFEEERKLAQLKSQGKGAGGEDLIMLDIYAIEELRARGLEVTDDSPKYNYHLDSSGSYVFENTVATVMALRREKMFVEEVSTGQECGVVLDKTCFYAEQGGQIYDEGYLVKVDDSSEDKTEFTVKNAQVRGGYVLHIGTIYGDLKVGDQVWLFIDEPRRRPIMSNHTATHILNFALRSVLGEADQKGSLVAPDRLRFDFTAKGAMSTQQIKKAEEIANEMIEAAKAVYTQDCPLAAAKAIQGLRAVFDETYPDPVRVVSIGVPVSELLDDPSGPAGSLTSVEFCGGTHLRNSSHAGAFVIVTEEAIAKGIRRIVAVTGAEAQKALRKAESLKKCLSVMEAKVKAQTAPNKDVQREIADLGEALATAVIPQWQKDELRETLKSLKKVMDDLDRASKADVQKRVLEKTKQFIDSNPNQPLVILEMESGASAKALNEALKLFKMHSPQTSAMLFTVDNEAGKITCLCQVPQNAANRGLKASEWVQQVSGLMDGKGGGKDVSAQATGKNVGCLQEALQLATSFAQLRLGDVKN [AARS]
[1]; cell cycle stage: G1/S
  melting temperature: 51.6 °C
[1]; cell cycle stage: mitosis
  melting temperature: 52.1 °C
[2]
  solubility change mitosis (log2): -0.1
[3]
  solubility in G1/S (log2): 0.201
[4]; [5]
  thermal stability score: 2.25
[4]; cell cycle stage: mitosis
  thermal stability score: 2.81

## MDTKEEKKERKQSYFARLKKKKQAKQNAETASAVATRTHTGKEDNNTVVLEPDKCNIAVEEEYMTDEKKKRKSNQLKEIRRTELKRYYSIDDNQNKTHDKKEKKMVVQKPHGTMEYTAGNQDTLNSIALKFNITPNKLVELNKLFTHTIVPGQVLFVPDANSPSSTLRLSSSSPGATVSPSSSDAEYDKLPDADLARKALKPIERVLSSTSEEDEPGVVKFLKMNCRYFTDGKGVVGGVMIVTPNNIMFDPHKSDPLVIENGCEEYGLICPMEEVVSIALYNDISHMKIKDALPSDLPQDLCPLYRPGEWEDLASEKDINPFSKFKSINKEKRQQNGEKIMTSDSRPIVPLEKSTGHTPTKPSGSSVSEKLKKLDSSRETSHGSPTVTKLSKEPSDTSSAFESTAKENFLGEDDDFVDLEELSSQTGGGMHKKDTLKECLSLDPEERKKAESQINNSAVEMQVQSALAFLGTENDVELKGALDLETCEKQDIMPEVDKQSGSPESRVENTLNIHEDLDKVKLIEYYLTKNKEGPQVSENLQKTELSDGKSIEPGGIDITLSSSLSQAGDPITEGNKEPDKTWVKKGEPLPVKLNSSTEANVIKEALDSSLESTLDNSCQGAQMDNKSEVQLWLLKRIQVPIEDILPSKEEKSKTPPMFLCIKVGKPMRKSFATHTAAMVQQYGKRRKQPEYWFAVPRERVDHLYTFFVQWSPDVYGKDAKEQGFVVVEKEELNMIDNFFSEPTTKSWEIITVEEAKRRKSTCSYYEDEDEEVLPVLRPHSALLENMHIEQLARRLPARVQGYPWRLAYSTLEHGTSLKTLYRKSASLDSPVLLVIKDMDNQIFGAYATHPFKFSDHYYGTGETFLYTFSPHFKVFKWSGENSYFINGDISSLELGGGGGRFGLWLDADLYHGRSNSCSTFNNDILSKKEDFIVQDLEVWAFD [NCOA7]
[1]; cell cycle stage: G1/S
  melting temperature: 51 °C
[1]; cell cycle stage: mitosis
  melting temperature: 50.9 °C
[2]
  solubility change mitosis (log2): -0.15
[3]
  solubility in G1/S (log2): 0.0391
[4]; [5]
  thermal stability score: -0.286
[4]; cell cycle stage: mitosis
  thermal stability score: -0.429

## MDTPLRRSRRLGGLRPESPESLTSVSRTRRALVEFESNPEETREPGSPPSVQRAGLGSPERPPKTSPGSPRLQQGAGLESPQGQPEPGAASPQRQQDLHLESPQRQPEYSPESPRCQPKPSEEAPKCSQDQGVLASELAQNKEELTPGAPQHQLPPVPGSPEPYPGQQAPGPEPSQPLLELTPRAPGSPRGQHEPSKPPPAGETVTGGFGAKKRKGSSSQAPASKKLNKEELPVIPKGKPKSGRVWKDRSKKRFSQMLQDKPLRTSWQRKMKERQERKLAKDFARHLEEEKERRRQEKKQRRAENLKRRLENERKAEVVQVIRNPAKLKRAKKKQLRSIEKRDTLALLQKQPPQQPAAKI [CCDC86]
[1]; cell cycle stage: G1/S
  melting temperature: 57.2 °C
[1]; cell cycle stage: mitosis
  melting temperature: 54.1 °C
[2]
  solubility change mitosis (log2): 0.956
[3]
  solubility in G1/S (log2): -1.03
[4]; [5]
  thermal stability score: -0.356
[4]; cell cycle stage: mitosis
  thermal stability score: -4.77

## MDVERLQEALKDFEKRGKKEVCPVLDQFLCHVAKTGETMIQWSQFKGYFIFKLEKVMDDFRTSAPEPRGPPNPNVEYIPFDEMKERILKIVTGFNGIPFTIQRLCELLTDPRRNYTGTDKFLRGVEKNVMVVSCVYPSSEKNNSNSLNRMNGVMFPGNSPSYTERSNINGPGTPRPLNRPKVSLSAPMTTNGLPESTDSKEANLQQNEEKNHSDSSTSESEVSSVSPLKNKHPDEDAVEAEGHEVKRLRFDKEGEVRETASQTTSSEISSVMVGETEASSSSQDKDKDSRCTRQHCTEEDEEEDEEEEEESFMTSREMIPERKNQEKESDDALTVNEETSEENNQMEESDVSQAEKDLLHSEGSENEGPVSSSSSDCRETEELVGSNSSKTGEILSESSMENDDEATEVTDEPMEQD [PPP4R2]
[1]; cell cycle stage: G1/S
  melting temperature: 51.2 °C
[1]; cell cycle stage: mitosis
  melting temperature: 51.7 °C
[2]
  solubility change mitosis (log2): -0.111
[3]
  solubility in G1/S (log2): 0.000183
[4]; [5]
  thermal stability score: -0.271
[4]; cell cycle stage: mitosis
  thermal stability score: -0.968

## MDVFLMIRRHKTTIFTDAKESSTVFELKRIVEGILKRPPDEQRLYKDDQLLDDGKTLGECGFTSQTARPQAPATVGLAFRADDTFEALCIEPFSSPPELPDVMKPQDSGSSANEQAVQ [TCEB2]
[1]; cell cycle stage: G1/S
  melting temperature: 52 °C
[1]; cell cycle stage: mitosis
  melting temperature: 51.8 °C
[2]
  solubility change mitosis (log2): 0.00166
[3]
  solubility in G1/S (log2): 0.109
[4]; [5]
  thermal stability score: 1.2
[4]; cell cycle stage: mitosis
  thermal stability score: -0.75

## MDVLAEANGTFALNLLKTLGKDNSKNVFFSPMSMSCALAMVYMGAKGNTAAQMAQILSFNKSGGGGDIHQGFQSLLTEVNKTGTQYLLRMANRLFGEKSCDFLSSFRDSCQKFYQAEMEELDFISAVEKSRKHINTWVAEKTEGKIAELLSPGSVDPLTRLVLVNAVYFRGNWDEQFDKENTEERLFKVSKNEEKPVQMMFKQSTFKKTYIGEIFTQILVLPYVGKELNMIIMLPDETTDLRTVEKELTYEKFVEWTRLDMMDEEEVEVSLPRFKLEESYDMESVLRNLGMTDAFELGKADFSGMSQTDLSLSKVVHKSFVEVNEEGTEAAAATAAIMMMRCARFVPRFCADHPFLFFIQHSKTNGILFCGRFSSP [SERPINB6]
[1]; cell cycle stage: G1/S
  melting temperature: 55.8 °C
[1]; cell cycle stage: mitosis
  melting temperature: 56.1 °C
[2]
  solubility change mitosis (log2): -0.136
[3]
  solubility in G1/S (log2): 0.174
[4]; [5]
  thermal stability score: -1.49
[4]; cell cycle stage: mitosis
  thermal stability score: -2.35

## MDVLVSECSARLLQQEEEIKSLTAEIDRLKNCGCLGASPNLEQLQEENLKLKYRLNILRKSLQAERNKPTKNMINIISRLQEVFGHAIKAAYPDLENPPLLVTPSQQAKFGDYQCNSAMGISQMLKTKEQKVNPREIAENITKHLPDNECIEKVEIAGPGFINVHLRKDFVSEQLTSLLVNGVQLPALGENKKVIVDFSSPNIAKEMHVGHLRSTIIGESISRLFEFAGYDVLRLNHVGDWGTQFGMLIAHLQDKFPDYLTVSPPIGDLQVFYKESKKRFDTEEEFKKRAYQCVVLLQGKNPDITKAWKLICDVSRQELNKIYDALDVSLIERGESFYQDRMNDIVKEFEDRGFVQVDDGRKIVFVPGCSIPLTIVKSDGGYTYDTSDLAAIKQRLFEEKADMIIYVVDNGQSVHFQTIFAAAQMIGWYDPKVTRVFHAGFGVVLGEDKKKFKTRSGETVRLMDLLGEGLKRSMDKLKEKERDKVLTAEELNAAQTSVAYGCIKYADLSHNRLNDYIFSFDKMLDDRGNTAAYLLYAFTRIRSIARLANIDEEMLQKAARETKILLDHEKEWKLGRCILRFPEILQKILDDLFLHTLCDYIYELATAFTEFYDSCYCVEKDRQTGKILKVNMWRMLLCEAVAAVMAKGFDILGIKPVQRM [RARS]
[1]; cell cycle stage: G1/S
  melting temperature: 49 °C
[1]; cell cycle stage: mitosis
  melting temperature: 48.9 °C
[2]
  solubility change mitosis (log2): -0.175
[3]
  solubility in G1/S (log2): -0.181
[4]; [5]
  thermal stability score: 0.328
[4]; cell cycle stage: mitosis
  thermal stability score: 1.95

## MEAARTAVLRVKRKRSAEPAEALVLACKRLRSDAVESAAQKTSEGLERAAENNVFHLVATVCSQEEPVQPLLREVLRPSRDSQQRVRRNLRASAREVRQEGRYRVLSSRRSLGTTSSGQESEYTPGNPEAAGNSGFQLLDLVHEEGEPEAASAGSCKTSDPDVILCNSVELIRERLTVSEDGPGVRRQEEQKHDDYVYDIYYLETATPGWIENILSVQPYSQEWELVNDDQEPEDIYDDEDDENSENNWRNEYPEEESSDGDEDSRGSADYNSLSEEERGSSRQRMWSKYPLDVQKEFGYDSPHDLDSD [SLC7A6OS]
[1]; cell cycle stage: G1/S
  melting temperature: 52.4 °C
[1]; cell cycle stage: mitosis
  melting temperature: 54 °C
[2]
  solubility change mitosis (log2): -0.117
[3]
  solubility in G1/S (log2): 0.343
[4]; [5]
  thermal stability score: -0.0342
[4]; cell cycle stage: mitosis
  thermal stability score: 0.677

## MEAAVAAPRPRLLLLVLAAAAAAAAALLPGATALQCFCHLCTKDNFTCVTDGLCFVSVTETTDKVIHNSMCIAEIDLIPRDRPFVCAPSSKTGSVTTTYCCNQDHCNKIELPTTVKSSPGLGPVELAAVIAGPVCFVCISLMLMVYICHNRTVIHHRVPNEEDPSLDRPFISEGTTLKDLIYDMTTSGSGSGLPLLVQRTIARTIVLQESIGKGRFGEVWRGKWRGEEVAVKIFSSREERSWFREAEIYQTVMLRHENILGFIAADNKDNGTWTQLWLVSDYHEHGSLFDYLNRYTVTVEGMIKLALSTASGLAHLHMEIVGTQGKPAIAHRDLKSKNILVKKNGTCCIADLGLAVRHDSATDTIDIAPNHRVGTKRYMAPEVLDDSINMKHFESFKRADIYAMGLVFWEIARRCSIGGIHEDYQLPYYDLVPSDPSVEEMRKVVCEQKLRPNIPNRWQSCEALRVMAKIMRECWYANGAARLTALRIKKTLSQLSQQEGIKM [TGFBR1]
[1]; cell cycle stage: G1/S
  melting temperature: 50.2 °C
[1]; cell cycle stage: mitosis
  melting temperature: 50.8 °C
[2]
  solubility change mitosis (log2): -0.101
[3]
  solubility in G1/S (log2): -0.00326
[4]; [5]
  thermal stability score: 0.718
[4]; cell cycle stage: mitosis
  thermal stability score: 0.929
